Measurements reported in US20190359687A1.
One block for each binder: values may come before it.

Key:
[1] = target: human glycophorin A on human red blood cells or red blood cell membranes (human) (UniProt P02724); experiment: scFv 7 ug/ml on intact human RBC, unbound scFv by ELISA; pre-dilution
[2] = target: human glycophorin A on human red blood cells or red blood cell membranes (human) (UniProt P02724); experiment: scFv on intact human RBC, unbound scFv by ELISA; 0 min after 200-fold dilution
[3] = target: human glycophorin A on human red blood cells or red blood cell membranes (human) (UniProt P02724); experiment: scFv on intact human RBC, unbound scFv by ELISA; 5 min after 200-fold dilution
[4] = target: human glycophorin A on human red blood cells or red blood cell membranes (human) (UniProt P02724); experiment: scFv on intact human RBC, unbound scFv by ELISA; 20 min after 200-fold dilution
[5] = target: human glycophorin A on human red blood cells or red blood cell membranes (human) (UniProt P02724); experiment: scFv on intact human RBC, unbound scFv by ELISA; 60 min after 200-fold dilution
[6] = target: human glycophorin A on human red blood cells or red blood cell membranes (human) (UniProt P02724); experiment: scFv on intact human RBC, unbound scFv by ELISA; 120 min after 200-fold dilution
[7] = target: purified human glycophorin A protein (Sigma, cat # G5017) (human) (UniProt P02724); experiment: ELISA, native hGPA
[8] = target: human glycophorin A on human red blood cells or red blood cell membranes (human) (UniProt P02724); experiment: ELISA, Fab on coated human RBC membranes
[9] = target: recombinant human GPA ectodomain (human) (UniProt P02724); experiment: ELISA, rec hGPA ectodomain
[10] = target: T1, GP5-10 alanine scanning peptide (human); experiment: alanine scanning peptide ELISA
T1 sequence (peptide, N-terminal biotin): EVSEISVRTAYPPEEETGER

[11] = target: T2, GP5-12 alanine scanning peptide (human); experiment: alanine scanning peptide ELISA
T2 sequence (peptide, N-terminal biotin): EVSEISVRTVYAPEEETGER

[12] = target: T3, GP5-15 alanine scanning peptide (human); experiment: alanine scanning peptide ELISA
T3 sequence (peptide, N-terminal biotin): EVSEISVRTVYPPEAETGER

- percentage of input scFv antibody bound [1]: 100%
- percentage of input scFv antibody bound [2]: 90%
- percentage of input scFv antibody bound [3]: 16%
- percentage of input scFv antibody bound [4]: 0%
- percentage of input scFv antibody bound [5]: 3%
- percentage of input scFv antibody bound [6]: 0%
B1: TPP-5906 parental scFv (humanized and germlined 6C12) (scFv)
scFv: DIQLTQSPSFLSASVGDRVTITCRASSSVSYIYWFQQKPGKAPKLLIYATSTLQSGVPSRFSGSGSGTEYTLTISSLQPEDFATYYCHQRNSFPYTFGQGTKLEIKGGGGSGGGGSGGGGSGGGGSEVQLVQSGAEVKKPGASVKVSCKASGYTFTTYTIHWVRQAPGQGLEWMGYINPSSGYTRYNPKFKGRVTMTRDKSTSTAYMELRSLRSDDTAVYYCQTGTRDYWGQGTTVTVSS

- binding by ELISA relative to parental [7]: 0.06
B2: TPP-5321 (Fab, V domains shown)
VH: EVQLVQSGAEVKKPGASVKVSCKASGYTFTTYTIHWVRQAPGQGLEWIGIINPSSDYTRYNPKFKDRVTLTTDKSTSTAYMELRSLRSDDTAVYYCQTGTRDYWGQGTTVTVSS
VL: DIQLTQSPSFLSASVGDRVTITCSAASSVSYIYWFQQKPGKAPKLLIYSTSTLPSGVPSRFSGSGSGTEYTLTISSLQPEDFATYYCHQRNSFPFTFGQGTKLEIKR

- binding by ELISA relative to parental [7]: 0.04
B3: TPP-5353 (Fab, V domains shown)
VH: EVQLVQSGAEVKKPGASVKVSCKASGYTFTTYTIHWVRQAPGQGLEWIGYINPSSDYTRYNPKFKDRVTLTTDKSTSTAYMELRSLRSDDTAVYYCQTGTRDYWGQGTTVTVSS
VL: DIQLTQSPSFLSASVGDRVTITCSAASSVSYIYWFQQKPGKAPKLLIYSTSTLPSGVPSRFSGSGSGTEYTLTISSLQPEDFATYYCHQLNSFPFTFGQGTKLEIKR

- binding in ELISA relative to parental Fab (relative to parental Fab) [8]: 0.3
B4: TPP-5339, Hu6C12-24 Fab variant VH: (E1Q, I48M, L70M, T72R, K74T, R84S, D89E, Q97A, T98R) (Fab, V domains shown)
VH: QVQLVQSGAEVKKPGASVKVSCKASGYTFTTYTIHWVRQAPGQGLEWMGYINPSSDYTRYNPKFKDRVTMTRDTSTSTAYMELSSLRSEDTAVYYCARGTRDYWGQGTTVTVSS
VL: DIQLTQSPSFLSASVGDRVTITCSAASSVSYIYWFQQKPGKAPKLLIYSTSTLPSGVPSRFSGSGSGTEYTLTISSLQPEDFATYYCHQRNSFPFTFGQGTKLEIKR

- binding by ELISA relative to parental [9]: 0.09
B5: TPP-5349 (Fab, V domains shown)
VH: EVQLVQSGAEVKKPGASVKVSCKASGYTFTTYTIHWVRQAPGQGLEWIGYINPSSDYTRYNPKFKDRVTLTTDKSTSTAYMELRSLRSDDTAVYYCQTGTRDYWGQGTTVTVSS
VL: DIQLTQSPSFLSASVGDRVTITCSAASSVSYIYWFQQKPGKAPKLLIYSASTLPSGVPSRFSGSGSGTEYTLTISSLQPEDFATYYCHQRNSFPFTFGQGTKLEIKR

- percent reduction of binding [10]: > 95%
- percent reduction of binding [11]: > 95%
- percent reduction of binding [12]: > 95%
B6: TPP-5906 Fab (Fab, V domains shown)
VH: EVQLVQSGAEVKKPGASVKVSCKASGYTFTTYTIHWVRQAPGQGLEWMGYINPSSGYTRYNPKFKGRVTMTRDKSTSTAYMELRSLRSDDTAVYYCQTGTRDYWGQGTTVTVSS
VL: DIQLTQSPSFLSASVGDRVTITCRASSSVSYIYWFQQKPGKAPKLLIYATSTLQSGVPSRFSGSGSGTEYTLTISSLQPEDFATYYCHQRNSFPYTFGQGTKLEIKR

- binding by ELISA relative to parental [7]: 0.04
B7: TPP-5346 (Fab, V domains shown)
VH: EVQLVQSGAEVKKPGASVKVSCKASGYTFTTYTIHWVRQAPGQGLEWIGYINPSSDYTRYNPKFKDRVTLTTDKSTSTAYMELRSLRSDDTAVYYCQTGTRDYWGQGTTVTVSS
VL: DIQLTQSPSFLSASVGDRVTITCSAASSVSYIAWFQQKPGKAPKLLIYSTSTLPSGVPSRFSGSGSGTEYTLTISSLQPEDFATYYCHQRNSFPFTFGQGTKLEIKR

- binding by ELISA relative to parental [7]: 0.07
B8: TPP-5325 (Fab, V domains shown)
VH: EVQLVQSGAEVKKPGASVKVSCKASGYTFTTYTIHWVRQAPGQGLEWIGYINPSSDYTSYNPKFKDRVTLTTDKSTSTAYMELRSLRSDDTAVYYCQTGTRDYWGQGTTVTVSS
VL: DIQLTQSPSFLSASVGDRVTITCSAASSVSYIYWFQQKPGKAPKLLIYSTSTLPSGVPSRFSGSGSGTEYTLTISSLQPEDFATYYCHQRNSFPFTFGQGTKLEIKR

- binding by ELISA relative to parental [7]: 0.06
B9: TPP-5336 (Fab, V domains shown)
VH: EVQLVQSGAEVKKPGASVKVSCKASGYTFTTYTIHWVRQAPGQGLEWIGYINPSSDYTRYNPKFKDRVTLTTDKSTSTAYMELRSLRSDDTAVYYCQRGTRDYWGQGTTVTVSS
VL: DIQLTQSPSFLSASVGDRVTITCSAASSVSYIYWFQQKPGKAPKLLIYSTSTLPSGVPSRFSGSGSGTEYTLTISSLQPEDFATYYCHQRNSFPFTFGQGTKLEIKR
